B1: M0040-A11 Fab (Fab, V domains shown)
VH: EVQLLESGGGLVQPGGSLRLSCAASGFTFSHYVMFWVRQAPGKGLEWVSRIVPSGGATMYADSVKGRFTISRDNSKNTLYLQMNSLRAEDTAVYYCARDRPLYDSSGYVDYWGQGTLVTVSS
VL: QSALTQPPSASGSPGQSVTISCTGTSSDVGAYNYVSWYQQHPDKAPKLIIYNVNERPSGVPDRFSGSKSGNTASLTVSGLQAEDEADYYCTSYAGSNKIGVSGTGTKVTVL
B2: M0031-C02 Fab (Fab, V domains shown)
VH: EVQLLESGGGLVQPGGSLRLSCAASGFTFSPYPMGWVRQAPGKGLEWVSSIVSSGGLTLYADSVKGRFTISRDNSKNTLYLQMNSLRAEDTAVYYCARGGRLYDILTGQGAPFDYWGQGTLVTVSS
VL: DIQMTQSPLSLPVTPGEPASISCRSSQSLLHSNGYYYLDWYLQKPGQSPQLLIYLGSYRASGVPDRFSGSGSGTDFTLKISSVEAEDVGVYYCMQALQTPLTFGGGTRVDIK
B3: M0037-C09 Fab (Fab, V domains shown)
VH: EVQLLESGGGLVQPGGSLRLSCAASGFTFSHYEMFWVRQAPGKGLEWVSSISPSGGQTHYADSVKGRFTISRDNSKNTLYLQMNSLRAEDTAVYYCATDRTYYDFWSGYGPLWYWGQGTLVTVSS
VL: DIQMTQSPLSLPVTLGESASVSCRSSQSLLHENGHNYLDWYLQKPGQSPQLLIYLGSNRASGVPDRFSGSGSGTDFTLKISRVEAEDVGVYYCMQSLKTPPTFGPGTKVEIK
B4: M0040-A06 Fab (Fab, V domains shown)
VH: EVQLLESGGGLVQPGGSLRLSCAASGFTFSYYGMYWVRQAPGKGLEWVSSISSSGGYTDYADSVKGRFTISRDNSKNTLYLQMNSLRAEDTAVYYCARRIKYYDIEGEGAFDIWGQGTMVTVSS
VL: DIVMTQTPPSLPVNPGEPASISCRSSQSLLHRNGYNYLDWYLQKPGQSPQLLIHLGSYRASGVPDRFSGSGSGTDFTLKISRVEAEDVGVYYCMQPLQTPFTFGPGTKVDIK
B5: M0043-G02 Fab (Fab, V domains shown)
VH: EVQLLESGGGLVQPGGSLRLSCAASGFTFSWYPMFWVRQAPGKGLEWVSGIYSSGGPTDYADSVKGRFTISRDNSKNTLYLQMNSLRAEDTAVYYCAKDTLGRYYDFWSGYSYGMDVWGQGTTVTVSS
VL: DIQMTQSPGTLSLSPGERATLSCRASQSVSSSYLAWYQQKPGQAPRLLIYGASSRATGIPDRFSGSGSGTDFTLTISRLEPEDFAVYYCQSGVTFGGGTKVEIK
B6: M0037-C09 IgG (antibody, V domains shown)
VH: B3 VH
VL: B3 VL
notes: IgG of the Fab; also called M037-C09
B7: M0038-F08 Fab (Fab, V domains shown)
VH: EVQLLESGGGLVQPGGSLRLSCAASGFTFSRYKMWWVRQAPGKGLEWVSGIRPSGGLTRYADSVKGRFTISRDNSKNTLYLQMNSLRAEDTAVYYCARRGDYVGGFDYWGQGTLVTVSS
VL: DIQMTQSPGTLSLSPGERATLSCRASQSVSSSYLAWYQQKPGQAPRLLIYGASSRATGIPDRFSGSGSGTDFTLTISRLEPEDFAVYYCQHYGGSQAFGGGTKVEIK
B8: M0038-F08 IgG (antibody, V domains shown)
VH: B7 VH
VL: B7 VL
B9: M0038-F01 Fab (Fab, V domains shown)
VH: EVQLLESGGGLVQPGGSLRLSCAASGFTFSLYSMNWVRQAPGKGLEWVSSIYSSGGSTLYADSVKGRFTISRDNSKNTLYLQMNSLRAEDTAVYYCARGRAFDIWGQGTMVTVSS
VL: DIQMTQSPSSLSAFVGDKVTITCRASQSVGTYLNWYQQKAGKAPELLIYATSNLRSGVPSRFSGSGSGTDFTLTINTLQPEDFATYYCQQSYSIPRFTFGPGTKVDIK
B10: M0040-A11 IgG (antibody, V domains shown)
VH: B1 VH
VL: B1 VL
B11: M0031-F01 Fab (Fab, V domains shown)
VH: EVQLLESGGGLVQPGGSLRLSCAASGFTFSTYEMHWVRQAPGKGLEWVSSIYSSGGWTGYADSVKGRFTISRDNSKNTLYLQMNSLRAEDTAVYYCARSQQYYDFSSRYYGMDVWGQGTTVTVSS
VL: QSELTQPPSVSGTPGQRVTISCSGTSANIGRNAVHWYQQLPGTAPKLLIHSNNRRPSGVPDRFSGSKSGTSASLAISGLQSEDEADYYCAAWENSLNAFYVFGTGTKVTVL
B12: M0031-F01 IgG (antibody, V domains shown)
VH: B11 VH
VL: B11 VL
B13: M0039-H08 Fab (Fab, V domains shown)
VH: EVQLLESGGGLVQPGGSLRLSCAASGFTFSAYNMGWVRQAPGKGLEWVSSISSSGGYTGYADSVKGRFTISRDNSKNTLYLQMNSLRAEDTAVYYCARDLYRGFDYWGQGTLVTVSS
VL: DIQMTQSPATLSVSPGERATLSCRASESVKNNLAWYQQKPGQAPRLLIYGVSTRAPGIPARFSGSGSGTDFTLTISSLEPEDFAVYYCQQRSNWPPVTFGQGTRLEIK
B14: M0039-H08 IgG (antibody, V domains shown)
VH: B13 VH
VL: B13 VL
B15: M0033-H07 Fab (Fab, V domains shown)
VH: EVQLLESGGGLVQPGGSLRLSCAASGFTFSVYGMVWVRQAPGKGLEWVSVISSSGGSTWYADSVKGRFTISRDNSKNTLYLQMNSLRAEDTALYYCARPFSRRYGVFDYWGQGTLVTVSS
VL: DIQMTQSPSSLSASVGDRVTITCRASQGIRNFLAWYQQKPGKVPKLLVFGASALQSGVPSRFSGSGSGTDFTLTISGLQPEDVATYYCQKYNGVPLTFGGGTKVEIK
B16: M0031-C02 IgG (antibody, V domains shown)
VH: B2 VH
VL: B2 VL
B17: M0040-A06 IgG (antibody, V domains shown)
VH: B4 VH
VL: B4 VL
B18: M0038-E06 Fab (Fab, V domains shown)
VH: EVQLLESGGGLVQPGGSLRLSCAASGFTFSPYVMHWVRQAPGKGLEWVSSISPSGGWTYYADSVKGRFTISRDNSKNTLYLQMNSLRAEDMAVYYCARGTGAYGMDVWGQGTTVTVSS
VL: DIQMTQSPGTLSLSPGDRATLSCGASQLVVSNYIAWYQQKPGQAPRLLMYAGSIRATGIPDRFSGSGSGTDFTLTISRLEPEDFAIYYCQQRSNWPWTFGQGTKVEIK
B19: M0038-E06 IgG (antibody, V domains shown)
VH: B18 VH
VL: B18 VL
B20: M0037-D01 Fab (Fab, V domains shown)
VH: EVQLLESGGGLVQPGGSLRLSCAASGFTFSMYMMIWVRQAPGKGLEWVSSIYPSGGNTMYADSVKGRFTISRDNSKNTLYLQMNSLRAEDTAVYYCATGVLRYFDWDAGSGMDVWGQGTTVTVSS
VL: DIQMTQSPSSLSASVGDRVTITCRASQGIRNDLGWYQQKPGKAPKRLIYVASSLQSGVPSRFSGSGSGTEFTLTISSLQPEDFATYYCLQHNSYPWTFGQGTKVEIK

What follows are binders tested against MMP-24 (human, UniProt Q9Y5R2 156-328, limits assumed) (assay: cell-based or functional assay).
Sequence of MMP-24 (Q9Y5R2 156-328 limits assumed): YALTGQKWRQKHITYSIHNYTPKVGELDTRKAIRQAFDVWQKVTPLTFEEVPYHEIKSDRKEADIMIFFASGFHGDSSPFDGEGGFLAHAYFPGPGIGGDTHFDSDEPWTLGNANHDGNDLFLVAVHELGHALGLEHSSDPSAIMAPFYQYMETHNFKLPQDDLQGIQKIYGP
With B1 the “MMP-24 activity, 100 nM final Fab with 5 nM MMP-24” value (“MMP-24 activity, 100 nM final Fab” below) was 58 % inhibition. B2 was tested, and the “MMP-24 activity, 100 nM final Fab” value was 54 % inhibition. B3 was tested, and the “MMP-24 activity, 100 nM final Fab” value was 72 % inhibition. For B4, the “MMP-24 activity, 100 nM final Fab” value was 65 % inhibition. For B5, the “MMP-24 activity, 100 nM final Fab” value was 74 % inhibition.

What follows are binders tested against T1, human MMP-14 (human, UniProt P50281 112-541, limits assumed) (assay: enzymatic assay, IgG, 2 nM MMP-14, peptide substrate at 10, 14, 18 µM; highest Ki measured).
T1 construct: Soluble MMP-14 used in selection, ELISA (biotinylated) and enzymatic assays; also called hMMP-14; bhMMP-14 (biotinylated human MMP-14)
Description: (§1) K_i studies were performed using an enzymatic assay at substrate [Mca-Pro-Leu-Ala-Cys(Mob)-Trp-Ala-Arg-Dap(Dnp)-NH_2] concentrations of 10 μM, 14 μM and 18 μM. […] The concentration of MMP-14 was 2 nM.
Work on B6 yielded a Ki of 8.6 nM.

Each binder was assayed against T1, human MMP-14 (assay: enzymatic inhibition assay, 2 nM MMP-14, 10 uM substrate Mca-Pro-Leu-Ala-Cys(Mob)-Trp-Ala-Arg-Dap(Dnp)-NH2; rate against [IgG] 0-50 nM).
Description: as §1
Work on B6 yielded a Ki of 7.2 nM.

The binders below were run against T1, human MMP-14 (assay: cell-based or functional assay).
In the case of B7, the “IC50 of MMP-14 inhibition (MMP-14 at 2 pM), Fab” value (shortened to “IC50 of MMP-14 inhibition … Fab”) is reported as 31.1 nM. For B8, the “IC50 of MMP-14 inhibition (MMP-14 at 2 pM), IgG” value (“IC50 of MMP-14 inhibition … IgG” below) was 23 nM. With B9 the “IC50 of MMP-14 inhibition … Fab” value was 3.8 nM. For B1, the “IC50 of MMP-14 inhibition … Fab” value was 23.2 nM. In the case of B10, the “IC50 of MMP-14 inhibition … IgG” value is reported as 6.7 nM. B11 was tested, and the “IC50 of MMP-14 inhibition … Fab” value was 25.3 nM. With B12 the “IC50 of MMP-14 inhibition … IgG” value was 15.2 nM. B13 was tested, and the “IC50 of MMP-14 inhibition … Fab” value was 23 nM. In the case of B14, the “IC50 of MMP-14 inhibition … IgG” value is reported as 7.4 nM. For B15, the “IC50 of MMP-14 inhibition … Fab” value was 11.5 nM. For B2, the “IC50 of MMP-14 inhibition … Fab” value was 56 nM. In the case of B16, the “IC50 of MMP-14 inhibition … IgG” value is reported as 8 nM. B3 was tested, and the “IC50 of MMP-14 inhibition … Fab” value was 11.5 nM. In the case of B6, the “IC50 of MMP-14 inhibition … IgG” value is reported as 4.2 nM. In the case of B4, the “IC50 of MMP-14 inhibition … Fab” value is reported as 8.6 nM. With B17 the “IC50 of MMP-14 inhibition … IgG” value was 1.7 nM. In the case of B18, the “IC50 of MMP-14 inhibition … Fab” value is reported as 16.6 nM. With B19 the “IC50 of MMP-14 inhibition … IgG” value was 7.2 nM. In the case of B20, the “IC50 of MMP-14 inhibition … Fab” value is reported as 4.3 nM. B5 was tested, and the “IC50 of MMP-14 inhibition … Fab” value was 9.3 nM.

These binders were tested against T1, human MMP-14 (assay: enzymatic inhibition assay, 2 nM MMP-14, 14 uM substrate Mca-Pro-Leu-Ala-Cys(Mob)-Trp-Ala-Arg-Dap(Dnp)-NH2; rate against [IgG] 0-50 nM).
Description: as §1
In the case of B6, the Ki is reported as 6.3 nM.

From patent US7745587 (DYAX, dated 2010)
